Test results taken from patent publication US20090137003A1 (SYMPHOGEN A S, published 2009).

Legend:
Experiment in all cases: cell-based or functional assay
[1] = biological target: T1, RSV protein F of strain A2 (RSV A2 (ATCC number VR-1540), UniProt P03420 26-574)
[2] = biological target: T2, RSV protein F of strain Long (RSV Long (ATCC number VR-26), UniProt P12568 26-574)
[3] = biological target: T3, RSV protein F of strain B Wash/18537 (RSV B Wash/18537 (ATCC number VR-1580), UniProt P13843 26-574)
T3 sequence (P13843 26-574): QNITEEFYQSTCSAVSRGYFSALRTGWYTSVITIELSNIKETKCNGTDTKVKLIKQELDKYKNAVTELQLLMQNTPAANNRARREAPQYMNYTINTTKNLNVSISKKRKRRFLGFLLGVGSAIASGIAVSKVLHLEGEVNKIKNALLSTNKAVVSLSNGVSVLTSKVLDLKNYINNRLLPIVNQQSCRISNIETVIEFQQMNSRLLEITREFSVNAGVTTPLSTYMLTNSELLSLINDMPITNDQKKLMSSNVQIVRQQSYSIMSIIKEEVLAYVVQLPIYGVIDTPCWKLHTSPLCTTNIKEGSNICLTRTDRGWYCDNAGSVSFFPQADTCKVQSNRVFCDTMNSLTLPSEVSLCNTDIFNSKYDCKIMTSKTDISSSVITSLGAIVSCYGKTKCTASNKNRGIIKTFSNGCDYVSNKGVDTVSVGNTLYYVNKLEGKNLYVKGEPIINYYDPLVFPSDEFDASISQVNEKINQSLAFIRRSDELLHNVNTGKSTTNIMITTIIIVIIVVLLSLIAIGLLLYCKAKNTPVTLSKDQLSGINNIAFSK

[4] = biological target: T1, RSV protein F of strain A2; remark: listed apart in the source
[5] = biological target: T2, RSV protein F of strain Long; remark: listed apart in the source
[6] = biological target: T3, RSV protein F of strain B Wash/18537; remark: listed apart in the source

T2 sequence (P12568 26-574): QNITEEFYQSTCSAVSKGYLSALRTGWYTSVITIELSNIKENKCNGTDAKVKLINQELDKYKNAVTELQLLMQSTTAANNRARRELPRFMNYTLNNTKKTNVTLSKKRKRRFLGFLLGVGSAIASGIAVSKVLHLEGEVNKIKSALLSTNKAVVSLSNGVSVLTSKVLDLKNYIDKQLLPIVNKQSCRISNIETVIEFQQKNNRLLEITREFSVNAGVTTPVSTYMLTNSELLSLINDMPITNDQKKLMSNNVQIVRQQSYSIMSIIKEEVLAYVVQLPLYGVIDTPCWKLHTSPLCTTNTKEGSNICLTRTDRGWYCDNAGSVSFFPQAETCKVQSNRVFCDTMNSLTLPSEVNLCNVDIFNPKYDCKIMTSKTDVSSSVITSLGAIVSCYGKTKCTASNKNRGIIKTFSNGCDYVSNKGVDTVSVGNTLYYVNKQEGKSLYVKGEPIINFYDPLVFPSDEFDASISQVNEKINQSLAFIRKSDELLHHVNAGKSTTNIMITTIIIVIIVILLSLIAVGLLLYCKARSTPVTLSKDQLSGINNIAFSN
T1 sequence (P03420 26-574): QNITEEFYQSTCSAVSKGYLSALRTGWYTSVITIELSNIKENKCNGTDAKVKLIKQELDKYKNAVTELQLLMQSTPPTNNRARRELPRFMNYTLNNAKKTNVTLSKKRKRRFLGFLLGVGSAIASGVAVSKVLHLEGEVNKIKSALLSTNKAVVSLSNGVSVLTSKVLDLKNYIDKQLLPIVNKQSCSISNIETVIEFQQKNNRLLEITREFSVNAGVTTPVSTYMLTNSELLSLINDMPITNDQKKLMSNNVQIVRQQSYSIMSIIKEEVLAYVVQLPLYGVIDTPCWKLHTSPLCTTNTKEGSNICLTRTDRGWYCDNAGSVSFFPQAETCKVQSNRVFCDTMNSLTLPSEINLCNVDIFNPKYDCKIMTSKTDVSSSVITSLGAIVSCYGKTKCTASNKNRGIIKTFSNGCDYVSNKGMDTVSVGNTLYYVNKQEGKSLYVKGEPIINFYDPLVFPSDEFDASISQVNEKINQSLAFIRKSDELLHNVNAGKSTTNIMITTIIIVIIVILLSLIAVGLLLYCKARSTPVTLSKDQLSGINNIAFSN

B1: Palivizumab (Synagis) (antibody, V domains shown)
VH: QVTLRESGPALVKPTQTLTLTCTFSGFSLSTSGMSVGWIRQPPGKALEWLADIWWDDKKDYNPSLKSRLTISKDTSKNQVVLKVTNMDPADTATYYCARSMITNWYFDVWGAGTTVTVSS
VL: DIQMTQSPSTLSASVGDRVTITCKCQLSVGYMHWYQQKPGKAPKLLIYDTSKLASGVPSRFSGSGSGTEFTLTISSLQPDDFATYYCFQGSGYPFTFGGGTKLEIK
B1 was tested, and the “EC50 value (µg/ml), PRNT (plaque reduction neutralization) against RSV strain A2” value [1] was 0.15 µg/mL, the “EC50 value (µg/ml), PRNT (plaque reduction neutralization) against RSV strain Long” value [2] was 0.14 µg/mL and the “EC50 value (µg/ml), PRNT (plaque reduction neutralization) against RSV strain 18537” value [3] was 0.2 µg/mL. The “PRNT EC50 with complement, RSV A2” value [4] was 0.15 µg/mL, the “PRNT EC50 with complement, RSV Long” value [5] was 0.14 µg/mL and the “PRNT EC50 with complement, RSV 18537” value [6] was 0.2 µg/mL.
